The series deals with the molecule itself. Put plainly: immunoblotting of unboiled samples.

Here are results for one protein from paper PMC2810746 (Cell host & microbe, 2009).

B1: adenovirus penton base, recombinant, expressed in COS-7 cells (natural protein)
chain: MRRAAMYEEGPPPSYESVVSAAPVAAALGSPFDAPLDPPFVPPRYLRPTGGRNSIRYSELAPLFDTTRVYLVDNKSTDVASLNYQNDHSNFLTTVIQNNDYSPGEASTQTINLDDRSHWGGDLKTILHTNMPNVNEFMFTNKFKARVMVSRLPTKDNQVELKYEWVEFTLPEGNYSETMTIDLMNNAIVEHYLKVGRQNGVLESDIGVKFDTRNFRLGFDPVTGLVMPGVYTNEAFHPDIILLPGCGVDFTHSRLSNLLGIRKRQPFQEGFRITYDDLEGGNIPALLDVDAYQASLKDDTEQGGGGAGGSNSSGSGAEENSNAAAAAMQPVEDMNDHAIRGDTFATRAEEKRAEAEAAAEAAAPAAQPEVEKPQKKPVIKPLTEDSKKRSYNLISNDSTFTQYRSWYLAYNYGDPQTGIRSWTLLCTPDVTCGSEQVYWSLPDMMQDPVTFRSTRQISNFPVVGAELLPVHSKSFYNDQAVYSQLIRQFTSLTHVFNRFPENQILARPPAPTITTVSENVPALTDHGTLPLRNSIGGVQRVTITDARRRTCPYVYKALGIVSPRVLSSRTF
In the case of B1, the “stoichiometry N” value is 5.
